# Measured values from patent US11110182B2, “Multifunctional RNA nanoparticles and methods for treating cancer and therapeutic resistant cancer” (University of Cincinnati, priority 2016, dated 2021).
# B1: pRNA-HER2apt-siMED1: 3-WJ pRNA nanoparticle bearing a HER2-targeting RNA aptamer and two different MED1 siRNAs; strands p1 SEQ ID NO: 3, p2 SEQ ID NO: 4 (nucleic acid)
# chain 1: GGACAGUGAAAGUGAGUCAAAGGAUCAAUCAUGGCCAAAGAUGUUACUUUGAGAGCCUU
# chain 2: GGCUCUCAAAGUAACAUCUAAGGCCAUGUGUAUGUGGGGGGAGGACGAUGCGGUCUGCUGUGCUUGAUAUGCCCCAGACGACUCGCCCCCCACAUACUUUGUUGAUCCAAUGACUCACUUUCACUGUCCUU
# modifications: 2'-F modification; third strand may lack entry; pRNA-HER2apt-siMED1, p1; pRNA-HER2apt-siMED1, p2
# System: ERα target genes TFF-1, c-Myc, cyclin D1 and MMP-9
# Assay: Gene expression in xenograft tumor tissues by real-time PCR
# Type: in vivo, athymic nude mice
# Text: FIG. 6A) Whole lung tissues were fixed, embedded, and sectioned for H&E staining, and FIG. 6B) metastasis foci in the whole lung tissues were then counted. Arrow indicates the metastasis foci. Scale bar: 100 μm. FIG. 6C) After digesting tumor tissues with trypsin and 0.1% collagenase, tumor cells were stained for CD44 and CD24, and FIG. 6D) analyzed for CD44^+CD24^−/low stem cell population using flow cytometry. FIG. 6E) Total RNA in the tumor tissues was extracted using TRIZOL reagent, and the expression of TFF-1, FIG. 6F) c-Myc, FIG. 6G) cyclin D1, and FIG. 6H) MMP-9 were determined by real-time PCR.
# Cell culture. Human breast cancer luciferase-overexpressing BT474 and MDA-MB-231 cells were maintained in DMEM medium (Hyclone, Thermo Scientific) supplemented with 10% fetal bovine serum (FBS, Sigma) and 1% penicillin/streptomycin (Corning) at 37° C. in a humidified atmosphere with 5% CO2.^53 • Generation of pRNA nanoparticles. The two strands of pRNA were synthesized with the DNA templates, which were amplified with overlapping primers (Sigma) by PCR methods, using a T7 promoter-controlled in vitro RNA transcription system as previously described^33 (Table 1). All the CTP and UTP used for synthesis of the pRNA nanoparticles were 2′-fluoro modified, except the control unmodified pRNA nanoparticles used in the stability assays. Following an overnight transcription at 37° C., RNA strands were purified using RNA clean and concentrator kits (ZYMO research) and examined by 8 M urea denatured 8% PAGE gel. pRNA nanoparticles were assembled by mixing the equal molar amounts of p1 and p2 strands and gradually annealing from 90° C. to 20° C. in 1×RNA annealing buffer containing 50 mM Tris-HCl (pH 7.5), 50 mM NaCl and 1 mM EDTA on a PCR machine. The generated pRNA nanoparticles were examined by 8% native PAGE gels as previously described.^33 To generate AF647-conjugated pRNA nanoparticles, a 5′-termial AF647-conjugated RNA strand was synthesized (TriLink) for annealing. • Characterization of pRNA nanoparticles. The hydrodynamic diameter and Tm value of pRNA nanoparticles were determined using dynamic light scattering and TGGE assay, respectively, as previously described.^54 The AFM imaging of the pRNA nanoparticles was performed at the University of Nebraska Medical Center imaging facility as previously reported.^55 Briefly, the pRNA nanoparticles (5 μL) were deposited on APS modified mica ^56 for a total of 2 min of incubation time. Excess samples were washed with DI water and dried under a flow of Argon gas. AFM images in air were acquired using MultiMode AFM NanoScope IV system (Bruker Instruments) operating in tapping mode with 1.5 Hz scanning rate. TESPA probes from Bruker were used for tapping mode imaging. […] For stability analyses, the pRNA nanoparticles were treated with RNase A, 8 M urea, or 10% FBS supplemented DMEM medium at 37° C., respectively. The integrity of the pRNA nanoparticles was examined through native PAGE gel electrophoresis. • pRNA nanoparticle cellular uptake assay. BT474 and MDA-MB-231 cells were seeded into 4-well Lab-Tek chamber slides (Nalge Nunc international, Thermo scientific) and incubated with 10 μg/mL AF647-conjugated pRNAs at 4° C. for 30 min. After washing with PBS for three times, cells were incubated at 37° C. for another hour. Cells were then fixed with 4% formaldehyde, permeated with 0.25% Trinton X-100, and stained with FITC-conjugated β-actin antibody (Sigma) and DAPI (Sigma). pRNA nanoparticle uptake was examined using a laser scanning confocal microscope (Zeiss). For flow cytometry analyses, BT474 cells were incubated with AF647-labeled pRNA nanoparticles at 37° C. for 3 h. After washing three times with PBS, the cellular uptake of pRNAs was determined using a BD LSRFortessa™ flow cytometer. • Real-time PCR. […]
molecule,measurement,setting,value
B1,MMP-9 expression in tumor tissues,combined with tamoxifen,further inhibited
same,TFF-1 expression in tumor tissues,combined with tamoxifen,further inhibited
same,c-Myc expression in tumor tissues,combined with tamoxifen,further inhibited
same,cyclin D1 expression in tumor tissues,combined with tamoxifen,further inhibited
same,MMP-9 expression in tumor tissues,pRNA treatment,significantly down-regulated
same,TFF-1 expression in tumor tissues,pRNA treatment,significantly down-regulated
same,c-Myc expression in tumor tissues,pRNA treatment,significantly down-regulated
same,cyclin D1 expression in tumor tissues,pRNA treatment,significantly down-regulated
